What follows are sequences tested on Escherichia coli TOP10 (assay: shrunken log2 fold change of peptide-encoding DNA abundance (4.5 h post-induction vs induction); higher = less antimicrobial activity (less host growth inhibition)). Conditions: time post-induction: 4.5 h; library: site-saturation at positions 5, 18, 19, 20.
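Further: peptides expressed intracellularly from a pBAD plasmid library in pooled LB shake-flask culture, induced with 0.3% L-arabinose, DNA abundance read by NGS, three biological replicates, DESeq2 with apeglm shrinkage.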

Row | Sequence | shrunken log2 fold change
1 | RRIRERPPRLPRPRPRPLGAPRP | -0.159
2 | RRIRERPPRLPRPRPRPLGYPRP | -0.39
3 | RRIRERPPRLPRPRPRPLHEPRP | -0.65
4 | RRIRERPPRLPRPRPRPLHHPRP | -0.458
5 | RRIRERPPRLPRPRPRPLHIPRP | -0.404
6 | RRIRERPPRLPRPRPRPLHMPRP | -0.203
7 | RRIRERPPRLPRPRPRPLKLPRP | -0.118
8 | RRIRERPPRLPRPRPRPLKTPRP | -0.457
9 | RRIRERPPRLPRPRPRPLMGPRP | 0.247
10 | RRIRERPPRLPRPRPRPLNCPRP | -1.25
11 | RRIRERPPRLPRPRPRPLNVPRP | -0.0706
12 | RRIRERPPRLPRPRPRPLPGPRP | -0.165
13 | RRIRERPPRLPRPRPRPLPKPRP | 0.222
14 | RRIRERPPRLPRPRPRPLPYPRP | -0.345
15 | RRIRERPPRLPRPRPRPLRAPRP | 0.348
16 | RRIRERPPRLPRPRPRPLSSPRP | 0.00508
17 | RRIRERPPRLPRPRPRPLTGPRP | -0.0199
18 | RRIRERPPRLPRPRPRPLVRPRP | -0.192
19 | RRIRERPPRLPRPRPRPLWKPRP | -0.424
20 | RRIRERPPRLPRPRPRPMAFPRP | 0.099
21 | RRIRERPPRLPRPRPRPMALPRP | -0.0232
22 | RRIRERPPRLPRPRPRPMCCPRP | -0.113

Row | Sequence | shrunken log2 fold change
23 | RRIRERPPRLPRPRPRPMDDPRP | -0.015
24 | RRIRERPPRLPRPRPRPMEEPRP | 0.161
25 | RRIRERPPRLPRPRPRPMGPPRP | -0.0976
26 | RRIRERPPRLPRPRPRPMGQPRP | -0.0667
27 | RRIRERPPRLPRPRPRPMHGPRP | -0.00992
28 | RRIRERPPRLPRPRPRPMHWPRP | -0.0407
29 | RRIRERPPRLPRPRPRPMKEPRP | -0.0276
30 | RRIRERPPRLPRPRPRPMKLPRP | -0.0902
31 | RRIRERPPRLPRPRPRPMLWPRP | -0.0445
32 | RRIRERPPRLPRPRPRPMMRPRP | 0.169
33 | RRIRERPPRLPRPRPRPMMWPRP | 0.3
34 | RRIRERPPRLPRPRPRPMNIPRP | -0.847
35 | RRIRERPPRLPRPRPRPMPYPRP | -0.0164
36 | RRIRERPPRLPRPRPRPMQDPRP | 0.306
37 | RRIRERPPRLPRPRPRPMQKPRP | 0.0175
38 | RRIRERPPRLPRPRPRPMRYPRP | 0.000213
39 | RRIRERPPRLPRPRPRPMSRPRP | -0.00149
40 | RRIRERPPRLPRPRPRPMTFPRP | -0.081
41 | RRIRERPPRLPRPRPRPMTQPRP | 0.00826
42 | RRIRERPPRLPRPRPRPMTRPRP | -0.00264
43 | RRIRERPPRLPRPRPRPMVVPRP | -0.261
44 | RRIRERPPRLPRPRPRPNDDPRP | -0.121

Row | Sequence | shrunken log2 fold change
45 | RRIRERPPRLPRPRPRPNELPRP | -0.0227
46 | RRIRERPPRLPRPRPRPNFLPRP | -0.114
47 | RRIRERPPRLPRPRPRPNFMPRP | -0.178
48 | RRIRERPPRLPRPRPRPNGIPRP | -0.115
49 | RRIRERPPRLPRPRPRPNHSPRP | -0.594
50 | RRIRERPPRLPRPRPRPNIAPRP | 0.0918
51 | RRIRERPPRLPRPRPRPNIVPRP | -0.232
52 | RRIRERPPRLPRPRPRPNKDPRP | -0.321
53 | RRIRERPPRLPRPRPRPNKEPRP | -0.0147
54 | RRIRERPPRLPRPRPRPNLPPRP | -0.0648
55 | RRIRERPPRLPRPRPRPNMKPRP | -0.6
56 | RRIRERPPRLPRPRPRPNNVPRP | -0.28
57 | RRIRERPPRLPRPRPRPNPGPRP | -0.55
58 | RRIRERPPRLPRPRPRPNPLPRP | -0.0696
59 | RRIRERPPRLPRPRPRPNQIPRP | -0.293
60 | RRIRERPPRLPRPRPRPNQLPRP | -0.0673
61 | RRIRERPPRLPRPRPRPNQMPRP | -0.0733
62 | RRIRERPPRLPRPRPRPNRRPRP | -0.0103
63 | RRIRERPPRLPRPRPRPNVDPRP | -0.0153
64 | RRIRERPPRLPRPRPRPNWLPRP | -0.00723
65 | RRIRERPPRLPRPRPRPNWSPRP | -0.3
66 | RRIRERPPRLPRPRPRPNYCPRP | -0.0596

Row | Sequence | shrunken log2 fold change
67 | RRIRERPPRLPRPRPRPPAHPRP | 0.269
68 | RRIRERPPRLPRPRPRPPAVPRP | 0.349
69 | RRIRERPPRLPRPRPRPPCRPRP | -0.0117
70 | RRIRERPPRLPRPRPRPPDFPRP | 0.00276
71 | RRIRERPPRLPRPRPRPPGRPRP | 0.146
72 | RRIRERPPRLPRPRPRPPGTPRP | 0.152
73 | RRIRERPPRLPRPRPRPPHVPRP | -0.362
74 | RRIRERPPRLPRPRPRPPIYPRP | -0.633
75 | RRIRERPPRLPRPRPRPPKLPRP | -0.0377
76 | RRIRERPPRLPRPRPRPPKQPRP | 0.0175
77 | RRIRERPPRLPRPRPRPPKWPRP | -0.176
78 | RRIRERPPRLPRPRPRPPLCPRP | 0.124
79 | RRIRERPPRLPRPRPRPPLGPRP | 0.0751
80 | RRIRERPPRLPRPRPRPPMGPRP | -0.107
81 | RRIRERPPRLPRPRPRPPMSPRP | -0.373
82 | RRIRERPPRLPRPRPRPPNTPRP | -0.284
83 | RRIRERPPRLPRPRPRPPPCPRP | 0.0452
84 | RRIRERPPRLPRPRPRPPPHPRP | 0.619
85 | RRIRERPPRLPRPRPRPPPKPRP | 0.748
86 | RRIRERPPRLPRPRPRPPQKPRP | -0.0624
87 | RRIRERPPRLPRPRPRPPRDPRP | 0.226
88 | RRIRERPPRLPRPRPRPPSEPRP | 0.156

Row | Sequence | shrunken log2 fold change
89 | RRIRERPPRLPRPRPRPPWLPRP | 0.488
90 | RRIRERPPRLPRPRPRPPWVPRP | -0.0642
91 | RRIRERPPRLPRPRPRPPYVPRP | -0.524
92 | RRIRERPPRLPRPRPRPPYWPRP | 0.0536
93 | RRIRERPPRLPRPRPRPQAPPRP | -0.0683
94 | RRIRERPPRLPRPRPRPQCGPRP | -0.43
95 | RRIRERPPRLPRPRPRPQCMPRP | -0.586
96 | RRIRERPPRLPRPRPRPQDQPRP | 0.0272
97 | RRIRERPPRLPRPRPRPQDWPRP | -0.206
98 | RRIRERPPRLPRPRPRPQEWPRP | -0.021
99 | RRIRERPPRLPRPRPRPQFFPRP | -0.0736
100 | RRIRERPPRLPRPRPRPQGNPRP | -0.166
101 | RRIRERPPRLPRPRPRPQHCPRP | -0.23
102 | RRIRERPPRLPRPRPRPQIIPRP | -1.12
103 | RRIRERPPRLPRPRPRPQISPRP | -0.0116
104 | RRIRERPPRLPRPRPRPQLEPRP | -0.0385
105 | RRIRERPPRLPRPRPRPQMRPRP | 0.0123
106 | RRIRERPPRLPRPRPRPQPDPRP | -0.258
107 | RRIRERPPRLPRPRPRPQPRPRP | 0.328
108 | RRIRERPPRLPRPRPRPQPTPRP | 0.234
109 | RRIRERPPRLPRPRPRPQPYPRP | -0.43

From the supplement of paper PMC9112550, “Optimization of the antimicrobial peptide Bac7 by deep mutational scanning” (BMC Biology, 2022)
